According to patent publication US9097721B2, “Compositions comprising engineered phosphothreonine affinity reagents, methods of making, and methods of use” (The Board of Trustees of the University of Illinois, priority 2012, dated 2015):
Changes are numbered by the printed parent chain. Names and notes keep the numbering of the source. Values joined by “and” are separate entries in the source; they are usually repeats but may differ in a detail not shown here. Equal entries are not always repeated. “Also recorded” adds a separate entry of the source.

B1: G2: thermally stable FHA1 variant of D2, mutations T15A, L48F, N121Y (protein)
chain: MENITQPTQQSTQAAQRFLIEKFSQEQIGENIVFRVISTTGQIPIRDFSADISQVLKEKRSIKKVWTFGRNPACDYHLGNISRLSNKHFQILLGEDGNLLLNDISTNGTWLNGQKVEKNSYQLLSQGDEITVGVGVESDILSLVIFINDKFKQSLEQNKVDRIRSNLKNTHHHHHH
B2: A12: thermally stable FHA1 variant of D2, mutations C74S, G94D, E129V, N158I (protein)
chain: B1 chain with A15T, F48L, C74S, G94D, Y121N, E129V, N158I
B3: 3C-3S: FHA1 domain variant with three cysteines mutated to serine (C34S, C38S, C154S) (protein)
chain: MENITQPTQQSTQATQRFLIEKFSQEQIGENIVSRVISTTGQIPIRDLSADISQVLKEKRSIKKVWTFGRNPACDYHLGNISRLSNKHFQILLGEDGNLLLNDISTNGTWLNGQKVEKNSNQLLSQGDEITVGVGVESDILSLVIFINDKFKQSLEQNKVDRIRSNLKNT
modifications: left off: a dimerising Fc or GST; large carriers; small tags and cut ends
B4: 4C-4S: FHA1 variant with all four cysteines mutated to serines (protein)
chain: B3 chain with C74S
modifications: left off: a dimerising Fc or GST; large carriers; small tags and cut ends
notes: FHA1 variant with all four cysteines mutated to serines

Assays:
[1] = target: T1, cognate pT peptide (Rad9-pT) (Saccharomyces cerevisiae, UniProt P14737); test: FTS assay, Tm shift in the presence of the cognate pT peptide; type: binding, yeast
T1 construct: host or cells: chemical synthesis
Protocol: (§1) The FTS assay was performed on a MxPro-Mx3005P instrument (Stratagene) following the protocol described by Giuliani et al (Giuliani et al. (2008) Biochemistry 47, 13974-84). It is a real-time assay using the SYBR® Green experiment setting with dissociation curve. The default FRROX filter set was used with an excitation wavelength of 492 nm and emission wavelength of 610 nm. FHA1 domains diluted with PBS to 2× final concentration (i.e. 2 μM and 8 μM) were mixed with 10×SYPRO® Orange protein gel stain (Invitrogen; 5000× concentration in DMSO) to give a final dye concentration of 10×. Then, to the protein wells only, 10 μL of the dye+protein mixture was added along with 10 μL of 1×PBS buffer. In other wells, 10 μL of either the pT peptide or its non-phosphorylated form (diluted to 2× final concentration with PBS, i.e. 100 μM and 500 μM) was added to 10 μL of dye+protein mixture. The final reaction volume was 20 μL with final concentrations of 1 μM or 4 μM of FHA1 domains, 50 μM or 250 μM of pT and non-phosphorylated peptides and 5× final concentration of the SYPRO® Orange. The assay was performed in duplicate in 96 well white PCR plates (BIO-Rad) covered with optically clear Microseal® ‘B’ Film (Bio-Rad) and heated from 25° C. to 95° C. and the melting curve was obtained with fluorescence (R) values plotted on the Y-axis and increasing temperature (° C.) on the X-axis. The mid-point of the curve gives the melting temperature (Tm), which shifts to a higher temperature in the presence of the pT peptide.
(§2) The Tm values of FHA1 variants were determined by FTS assay (Giuliani et al. (2008) Biochemistry 47, 13974-84). A representative Tm curve for the G2 variant at 1 μM concentration is shown (solid squares), alone and in the presence of the pT peptide (FIG. 11). […] The Tm values of the thermally stable variants (along with WT and D2 variant) at 1 μM and 4 μM concentration, along with the Tm shift in the presence of two different concentrations (50 μM and 250 μM) of the pT peptide, are listed in Table S3.

[2] = system: non-phosphorylated form of the same peptide; test: FTS assay, Tm shift in the presence of the non-phosphorylated peptide; type: binding, yeast
Protocol: as §1, with “The final reaction volume was 20 μL with final concentrations of 1 μM or 4 μM of FHA1 domains, 50 μM or 250 μM of pT and non-phosphorylated peptides and 5× final concentration of the SYPRO® Orange.” left out, “The mid-point of the curve gives the melting temperature (Tm), which shifts to a higher temperature in the presence of the pT peptide.” left out
The Tm values of FHA1 variants were determined by FTS assay (Giuliani et al. (2008) Biochemistry 47, 13974-84). […]

[3] = target: T2, pT peptide (Rad 9-pT: SLEVpTEADATFYAKK) (Saccharomyces cerevisiae, UniProt P14737); test: Isothermal titration calorimetry (ITC); type: binding, yeast; settings: in solution by ITC; FHA1 domain 35 μM in cell
T2 construct: host or cells: chemical synthesis
Protocol: A fixed amount (10 μL) of the pT peptide (Rad 9-pT: SLEVpTEADATFYAKK (SEQ ID NO:9); 500 μM) was injected from the syringe into the sample cell containing the FHA1 domain (35 μM). […] Each measurement was repeated three times.
The affinity of the G2 variant and the WT FHA1 domain to the pT peptide (SLEVpTEADATFYAKK) (SEQ ID NO:9) was determined by ITC (FIG. 12). The sample cell contained the purified FHA1 domains (35 μM) and the injection syringe was filled with the pT peptide (350 μM). […] The FHA1 domains bound to the pT peptide with a stoichiometry of 1:1, and the ITC graph was fitted by the single site binding model.

[4] = Fluorescence-based thermal shift (FTS) assay, melting temperature; type: physicochemical; settings: for thermal stability compared with the starting D2 domain: isolated after selection with library heated to 50° C.; for Tm (° C.): mid-point of melting curve
Protocol: as §1
To evaluate the thermal stability of the D2 variant, phage particles displaying the D2 variant were heated at various temperatures (30° C., 37° C., 50° C., 60° C., 70° C., 80° C., and 95° C.) prior to incubation with the cognate pT peptide (Rad9-pT) and the non-phosphorylated form of the same peptide (Rad9-T). […] (FIG. 8). The D2 variant (purified six-his tagged protein) was mixed with SYPRO orange dye with or without the Rad9-pT-containing peptide and heated from 25° C. to 95° C. in a real-time PCR experiment known as the Fluorescence-based thermal shift (FTS) assay^36. In this assay, initially, the fluorescence of SYPRO orange dye is quenched in the aqueous environment of a folded protein, but as the protein starts to unfold upon heating, the dye interacts with the hydrophobic core of the protein and its fluorescence increases. Therefore, an increase in fluorescence of the dye is directly proportional to protein unfolding, until a temperature (referred to as Tm here) is reached at which the dye fluorescence decreases due to aggregation and precipitation of the protein. The melting temperature (Tm) of the D2 variant was determined by fluorescence-based thermal shift (FTS) assay to be approximately 5° C. lower than the Tm of the WT FHA1 domain. To improve the thermal stability of the D2 variant, affinity selection was carried out by heating the phage library displaying D2 variants at 50° C. prior to incubation with the pT peptide ligand to favor the isolation of variants that remained folded and functional above 50° C.
as §2
The Tm (temperature at which 50% of the protein is unfolded) of the protein domain variants was determined by a fluorescence-based thermal shift assay (Giuliani et al. (2008) Biochemistry 47, 13974-84). The proteins were mixed with SYPRO orange dye, and heated from 25° C. to 95° C. on a real-time thermocycler. […]

Rad9-pT peptide [5] = target: T3, Rad9-pT peptide (Saccharomyces cerevisiae, UniProt P14737); test: Phage ELISA of phage-displayed FHA1 domains; type: binding, yeast; settings: M13 protein III fusion, DsbA signal sequence
T3 construct: host or cells: chemical synthesis
Protocol: To amplify the phage particles displaying the recombinant FHA1 variants, TG1 bacterial cells (5 mL; Stratagene) harboring the phagemid DNA were infected at mid-log (OD600nm=0.5-0.6) with M13K07 helper phage (New England Biolabs) at a multiplicity of infection (MOI) of 20 for 1 h at 37° C. at 150 rpm. Infected cells were centrifuged, and the pellet was resuspended in fresh Luria Bertani medium (LB: 10 g Tryptone, 5 g Yeast extract, and 10 g NaCl per liter) supplemented with 50 μg/mL carbenicillin and 50 μg/ml kanamycin, and phage were amplified overnight at 30° C. at 250 rpm. All of the phage ELISA steps were performed at room temperature. Biotinylated peptides (100 μL, 5 μg/mL) were immobilized on Nunc MaxiSorp flat-bottom 96 well plates (Thermo Fisher Scientific) via NeutrAvidin™ Biotin binding protein (100 μL, 10 μg/mL; Thermo Fisher Scientific) and blocked with 2% skim milk in 1×PBS (200 μL per well). After washing with Phosphate Buffered Saline (PBS: 0.14 M Sodium Chloride, 0.003 M Potassium Chloride, 0.002 M Potassium Phosphate, and 0.01 M Sodium Phosphate), the wells were incubated with the phage supernatant (100 μL of phage diluted 1:2 with PBS containing 0.1% Tween 20 (PBST)) for 1 h and washed three times with PBST. The binding phage were detected using anti-M13 antibody conjugated to horse radish peroxidase (HRP) (GE Healthcare) diluted 1:5000 with PBST. After washing away the unbound antibody, the chromogenic substrate for HRP; 2,2′-Azinobis (3-ethylbenzothiazoline-6-Sulfonic Acid) diammonium salt (Thermo Fisher Scientific), supplemented with hydrogen peroxide was added (100 μL per well), and the absorbance of the green colored complex was measured at 405 nm on POLARstar OPTIMA microtiter plate reader (BMG Labtech).

Rad9-pT peptide [6] = target: T3, Rad9-pT peptide; test: ELISA of GST fusions of FHA1 domains; type: binding, yeast; settings: expressed in bacterial cytoplasm as GST fusion
Protocol: For production of FHA1-GST fusion protein, BL21 DE3 cells (10 mL; Stratagene) harboring the expression vector was grown overnight at 30° C. using the Overnight Express™ Autoinduction System 1 (Novagen). The next day, cells were lysed using BugBuster® 10× Protein Extraction Reagent (Novagen) following the manufacturer's instructions. Cell lysate (100 μL diluted 1:5 with PBST) was incubated with the biotinylated peptides as described above and detected using anti-GST antibody conjugated to HRP (diluted 1:10,000 with PBST; GE Healthcare).

[7] = 250 μM pT peptide, protein 1 μM
[8] = 250 μM pT peptide, protein 4 μM

Molecule | Tm shift (° C.) in the presence of pT peptide ([1]; 50 μM pT peptide, protein 1 μM) [°C] | Tm shift (° C.) in the presence of pT peptide ([1]; 50 μM pT peptide, protein 4 μM) [°C] | Tm shift (° C.) in the presence of pT peptide [1, 7] [°C] | Tm shift (° C.) in the presence of pT peptide [1, 8] [°C] | shift in the Tm [2] | Kd [3] | thermal stability compared with the starting D2 domain [4] | Tm (° C.) ([4]; protein concentration 1 μM) [°C] | Tm (° C.) ([4]; protein concentration 4 μM) [°C] | binding to Rad9-pT peptide when phage-displayed (Rad9-pT peptide [5]) | binding of GST fusion to Rad9-pT peptide (Rad9-pT peptide [6])
B1 | 1.2 | 0.5 | 2.75 | 2.5 | No shift | ~890 nM and 890 nM | more thermally stable | 73.75 | 74.9 |  | 
B2 | 1.25 | 1 | 2 | 2.4 |  |  | more thermally stable | 66 | 64 |  | 
B3 |  |  |  |  |  |  |  |  |  | did not bind; also recorded: remained non-functional | bound specifically; also recorded: showed specific binding
B4 |  |  |  |  |  |  |  |  |  | did not bind; also recorded: remained non-functional | bound specifically; also recorded: showed specific binding
